# Results: US6641994B2, “Methods of identifying anti-viral agents” (Pharmacia & Upjohn Company, priority 1999, dated 2003)
# B1: GST-16E7: HPV16 E7 protein expressed as a glutathione-S-transferase (GST) fusion protein (protein)
# chain: MHGDTPTLHEYMLDLQPETTDLYCYEQLNDSSEEEDEIDGPAGQAEPDRAHYNIVTFCCKCDSTLRLCVQSTHVDIRTLEDLLMGTLGIVCPICSQKP
# modifications: left off: a dimerising Fc or GST
# Tests used:
# cyclin A/CDK2 = molecular target: T1, cyclin A/CDK2 (Homo sapiens, UniProt P20248+P24941); type: biochemical
# T1 construct: hemagglutinin (HA); made in house; host or cells: Sf9 or High Five insect cells, baculovirus co-infection
# T1 sequence (P20248 whole entry, one chain of several): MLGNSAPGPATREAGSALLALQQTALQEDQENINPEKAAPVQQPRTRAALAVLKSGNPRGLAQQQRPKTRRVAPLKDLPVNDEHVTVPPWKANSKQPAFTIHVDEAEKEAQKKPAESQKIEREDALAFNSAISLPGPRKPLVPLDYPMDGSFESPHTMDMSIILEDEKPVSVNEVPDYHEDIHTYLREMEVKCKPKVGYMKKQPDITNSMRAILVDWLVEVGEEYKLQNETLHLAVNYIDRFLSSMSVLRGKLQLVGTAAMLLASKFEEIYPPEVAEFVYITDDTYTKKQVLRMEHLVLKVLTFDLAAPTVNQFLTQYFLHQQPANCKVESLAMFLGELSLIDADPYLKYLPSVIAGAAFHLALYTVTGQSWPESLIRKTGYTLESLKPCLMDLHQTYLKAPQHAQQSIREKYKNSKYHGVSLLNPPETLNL
# CDK2 [1] = molecular target: T2, CDK2 (Homo sapiens, UniProt P20248+P24941); type: biochemical
# T2 construct: hemagglutinin (HA); made in house; host or cells: Sf9 or High Five insect cells, baculovirus co-infection
# T2 sequence (P20248 whole entry, one chain of several): as above
# CDK2 [2] = assay: Effect of E7 on p21/p27 inhibition of CDK2 kinase activity; type: biochemical
# Method: Histone H1 was chosen as the substrate in the kinase assays since pRb, a physiological CDK2 substrate, is known to bind E7 and could interfere with the assay.
# For some assays, HEK293 cell lysate (100 μg total protein, prepared as described above) was preincubated with purified GST-31E7 protein in PBS in the presence of p13 agarose beads (Calbiochem) at 4° C. for one hour, and subsequently incubated with purified His-p27 for 30 min at 4° C. Preincubation was carried out to permit protein complex formation, while p13 agarose beads bind cyclin-dependent kinase complexes to facilitate purification [Dreatta, et al., Cell 56:829-838 (1989)]. After collection and washing four times with PBS, the beads were washed two additional times with KIP buffer containing 50 mM Tris-Cl, pH 7.5, 10 mM MgCl2, 5 mM EGTA, 2 mM DTT, and 10 μM ATP. […] Phosphorylated proteins were analyzed by SDS-PAGE followed by autoradiography and PhosphorImager® analysis.
# In other assays, purified cyclin A- or cyclin E-complexed CDK2 was included. […] Kinase activity was measured following addition of 1 μl of 2 mCi/ml [γ-^32P] […] The reaction was stopped by adding SDS sample buffer, and phosphorylated proteins were analyzed by SDS-PAGE followed by autoradiography and PhosphorImager® analysis.
# GST-cyclinA = molecular target: T3, GST-cyclinA (Homo sapiens, UniProt P20248); type: binding; conditions: purified HPV16E7 4 μg; SDS-PAGE and immunoblotting
# T3 construct: made in house; host or cells: High Five insect cells, baculovirus
# T3 sequence (P20248 whole entry): as the sequence (P20248 whole entry, one chain of several) above
# HA-CDK2 = molecular target: T4, HA-CDK2 (Homo sapiens, UniProt P24941); type: binding
# T4 construct: made in house; host or cells: High Five insect cells, baculovirus
# cyclin E/CDK2 = molecular target: T5, cyclin E/CDK2 (Homo sapiens, UniProt P24941); type: biochemical
# T5 construct: hemagglutinin (HA); made in house; host or cells: Sf9 or High Five insect cells, baculovirus co-infection
# CDK5 complexed with p25 = CDK5 complexed with p25 (Homo sapiens, UniProt Q00535); assay: Kinase assay CDK5/p25, histone H1 phosphorylation; type: biochemical; conditions: over controls
# Chain of CDK5 complexed with p25 (Q00535 whole entry): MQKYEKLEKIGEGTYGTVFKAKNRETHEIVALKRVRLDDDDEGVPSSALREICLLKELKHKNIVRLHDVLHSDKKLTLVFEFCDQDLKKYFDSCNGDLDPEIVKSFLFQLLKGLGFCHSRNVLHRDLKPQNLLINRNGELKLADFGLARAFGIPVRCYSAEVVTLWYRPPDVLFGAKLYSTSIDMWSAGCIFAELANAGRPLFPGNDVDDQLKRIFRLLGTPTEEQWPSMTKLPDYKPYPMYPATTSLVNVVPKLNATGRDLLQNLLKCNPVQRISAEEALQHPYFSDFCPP
# Chain of CDK5 complexed with p25 (Q15078 99-307 partner limits assumed): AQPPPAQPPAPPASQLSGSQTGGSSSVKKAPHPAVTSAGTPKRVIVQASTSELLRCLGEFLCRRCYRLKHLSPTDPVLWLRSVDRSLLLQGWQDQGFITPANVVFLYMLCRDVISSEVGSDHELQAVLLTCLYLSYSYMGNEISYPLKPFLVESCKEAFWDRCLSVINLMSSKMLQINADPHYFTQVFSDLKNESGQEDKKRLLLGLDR
# MAP kinase 1 = assay: Kinase assay MAP kinase 1; type: biochemical
# Method: (§1) In an attempt to determine if the E7 effects on kinase activity were specific for members of the cyclin-dependent kinase family, various kinase/substrate combinations were examined for enhanced activity in the presence of E7.
# (§2) When HPV16-E7 was added to either cyclinA/CDK2 or cyclinE/CDK2 using histoneH1 as the substrate, a large increase (26-fold and 13-fold) over controls was noted as described above. When the retinoblastoma (pRb) protein was used as a substrate for cyclinE/CDK2 a 1.9-fold increase over background was noted.
# CDC2/cyclinB = CDC2/cyclinB (Homo sapiens, UniProt P06493); assay: Kinase assay CDC2/cyclinB; type: biochemical
# Chain of CDC2/cyclinB (P06493 whole entry, species assumed): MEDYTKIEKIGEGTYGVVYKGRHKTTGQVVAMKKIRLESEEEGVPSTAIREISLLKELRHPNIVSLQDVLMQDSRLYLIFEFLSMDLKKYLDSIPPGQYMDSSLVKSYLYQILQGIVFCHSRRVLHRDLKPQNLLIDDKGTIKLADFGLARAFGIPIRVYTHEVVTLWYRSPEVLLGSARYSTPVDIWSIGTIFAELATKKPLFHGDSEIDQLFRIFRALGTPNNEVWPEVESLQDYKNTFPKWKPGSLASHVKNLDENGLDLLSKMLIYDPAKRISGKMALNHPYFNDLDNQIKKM
# Chain of CDC2/cyclinB (P14635 whole entry partner, species assumed): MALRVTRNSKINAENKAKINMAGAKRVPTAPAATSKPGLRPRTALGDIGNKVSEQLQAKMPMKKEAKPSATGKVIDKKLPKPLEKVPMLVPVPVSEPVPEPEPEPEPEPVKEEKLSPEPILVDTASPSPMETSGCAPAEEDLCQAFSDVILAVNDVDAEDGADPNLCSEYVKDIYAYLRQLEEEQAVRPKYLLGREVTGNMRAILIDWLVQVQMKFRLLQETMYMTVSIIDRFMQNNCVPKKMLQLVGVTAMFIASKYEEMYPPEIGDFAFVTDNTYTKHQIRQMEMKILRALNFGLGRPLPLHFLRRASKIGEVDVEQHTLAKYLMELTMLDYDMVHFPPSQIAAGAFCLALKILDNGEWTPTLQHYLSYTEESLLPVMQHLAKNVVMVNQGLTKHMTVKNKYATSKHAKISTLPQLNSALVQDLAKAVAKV
# Method: as §1, §2
Molecule,phosphorylation of HPV E2 by CDK2/cyclinA (cyclin A/CDK2),peak stimulatory activity (concentration) (CDK2 [1]),EC50 (CDK2 [1]; read-out: 50% stimulatory concentration of E7),effect on p21- and p27-dependent inhibition of cyclin E/CDK2 activity (CDK2 [2]; histone H1 substrate),"effect on p27 inhibition of CDK2 activity (CDK2 [2]; purified cyclin E/CDK2 and cyclin A/CDK2, solution kinase assay)",binding to beads containing GST-cyclinA (GST-cyclinA),binding to beads with immobilized HA-CDK2 (HA-CDK2),effect on cyclin A/CDK2 histone H1 kinase activity (cyclin A/CDK2),Km (cyclin A/CDK2; read-out: Km for histone H1),increase in cyclinE/CDK2 kinase activity (cyclin E/CDK2),increase in pRb kinase activity (cyclin E/CDK2),stimulation of cyclin E/CDK2 phosphorylation of MBP-HPV 18 E1 fusion protein (cyclin E/CDK2),increase in H1 phosphorylation by CDK5 complexed with p25 (CDK5 complexed with p25),MAP kinase 1 activity (MAP kinase 1),CDC2/cyclinB activity (CDC2/cyclinB)
"E7: HPV E7 protein or GST-E7 fusion, strain not named at the place; b203 used purified HPV16E7",enhanced,approximately 0.29 μM,~180 nM,little or no effect,little or no effect,binding,no binding,–,–,–,–,–,–,–,–
B1,–,–,–,–,–,–,–,significant effect,1.1 µM,13 fold,1.9 fold,2.3 fold,4.5 fold,unaffected,unaffected
